Laboratory results as given in the supplement of paper PMC9112550, “Optimization of the antimicrobial peptide Bac7 by deep mutational scanning” (BMC Biology, 2022).

Test system: Escherichia coli TOP10
Test: shrunken log2 fold change of peptide-encoding DNA abundance (4.5 h post-induction vs induction); higher = less antimicrobial activity (less host growth inhibition)
Conditions: time post-induction: 4.5 h; library: site-saturation at positions 5, 18, 19, 20
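Also: peptides expressed intracellularly from a pBAD plasmid library in pooled LB shake-flask culture, induced with 0.3% L-arabinose, DNA abundance read by NGS, three biological replicates, DESeq2 with apeglm shrinkage.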

| Sequence | shrunken log2 fold change |
| --- | --- |
| RRIRNRPPRLPRPRPRPDKMPRP | 0.0206 |
| RRIRVRPPRLPRPRPRPNIVPRP | 0.000276 |
| RRIRWRPPRLPRPRPRPEPDPRP | 0.901 |
| RRIRSRPPRLPRPRPRPSCFPRP | -0.197 |
| RRIRCRPPRLPRPRPRPLRKPRP | 0.734 |
| RRIRWRPPRLPRPRPRPHEGPRP | -0.102 |
| RRIRWRPPRLPRPRPRPGFYPRP | 0.0692 |
| RRIRFRPPRLPRPRPRPTAGPRP | 0.0761 |
| RRIRRRPPRLPRPRPRPEVWPRP | 1.74 |
| RRIRRRPPRLPRPRPRPHKFPRP | -0.132 |
| RRIRNRPPRLPRPRPRPKPHPRP | 0.174 |
| RRIRSRPPRLPRPRPRPTPKPRP | 0.697 |
| RRIRGRPPRLPRPRPRPCSYPRP | 0.089 |
| RRIRIRPPRLPRPRPRPQNEPRP | -0.226 |
| RRIRLRPPRLPRPRPRPFTNPRP | 0.0104 |
| RRIRCRPPRLPRPRPRPSHAPRP | -0.375 |
| RRIRTRPPRLPRPRPRPNVKPRP | -0.137 |
| RRIRERPPRLPRPRPRPTDKPRP | -0.234 |
| RRIRLRPPRLPRPRPRPFPEPRP | -0.0878 |
| RRIRARPPRLPRPRPRPTQQPRP | -0.0711 |
| RRIRQRPPRLPRPRPRPRWDPRP | 0.29 |
| RRIRKRPPRLPRPRPRPKPYPRP | 0.307 |
| RRIRQRPPRLPRPRPRPVRSPRP | 0.32 |
| RRIRMRPPRLPRPRPRPYDCPRP | -0.113 |
| RRIRQRPPRLPRPRPRPHCSPRP | -0.104 |

| Sequence | shrunken log2 fold change |
| --- | --- |
| RRIRNRPPRLPRPRPRPIGQPRP | -0.0958 |
| RRIRKRPPRLPRPRPRPWGDPRP | 0.499 |
| RRIRMRPPRLPRPRPRPPNTPRP | 0.431 |
| RRIRMRPPRLPRPRPRPIYYPRP | -0.51 |
| RRIRGRPPRLPRPRPRPRSHPRP | 0.239 |
| RRIRGRPPRLPRPRPRPNLNPRP | 0.0742 |
| RRIRWRPPRLPRPRPRPHCPPRP | -0.0401 |
| RRIRMRPPRLPRPRPRPAFFPRP | 0.403 |
| RRIRWRPPRLPRPRPRPLMIPRP | -0.304 |
| RRIRTRPPRLPRPRPRPEKYPRP | -0.156 |
| RRIRDRPPRLPRPRPRPVPKPRP | 0.32 |
| RRIRHRPPRLPRPRPRPPVVPRP | 0.253 |
| RRIRPRPPRLPRPRPRPKNYPRP | -0.428 |
| RRIRRRPPRLPRPRPRPCYAPRP | 1.3 |
| RRIRPRPPRLPRPRPRPSFIPRP | -0.601 |
| RRIRRRPPRLPRPRPRPWMGPRP | -0.127 |
| RRIRARPPRLPRPRPRPMCVPRP | 0.188 |
| RRIRDRPPRLPRPRPRPFCAPRP | 0.652 |
| RRIRERPPRLPRPRPRPTNGPRP | -0.163 |
| RRIRARPPRLPRPRPRPFPWPRP | 0.477 |
| RRIRRRPPRLPRPRPRPQNNPRP | 0.198 |
| RRIRQRPPRLPRPRPRPQMIPRP | -0.0977 |
| RRIRYRPPRLPRPRPRPKFVPRP | -0.416 |
| RRIRVRPPRLPRPRPRPFWFPRP | 0.149 |
| RRIRWRPPRLPRPRPRPCSAPRP | 0.0988 |

| Sequence | shrunken log2 fold change |
| --- | --- |
| RRIRWRPPRLPRPRPRPKHTPRP | 0.578 |
| RRIRVRPPRLPRPRPRPKTNPRP | -0.117 |
| RRIRERPPRLPRPRPRPEMYPRP | -0.00136 |
| RRIRWRPPRLPRPRPRPCCWPRP | 0.438 |
| RRIRERPPRLPRPRPRPEQIPRP | -0.207 |
| RRIRWRPPRLPRPRPRPFHAPRP | 0.0472 |
| RRIRKRPPRLPRPRPRPKCCPRP | 0.0349 |
| RRIRYRPPRLPRPRPRPVFDPRP | -1.18 |
| RRIRWRPPRLPRPRPRPKMQPRP | 0.329 |
| RRIRARPPRLPRPRPRPYQTPRP | 0.00502 |
| RRIRERPPRLPRPRPRPGKLPRP | 0.162 |
| RRIRWRPPRLPRPRPRPTFLPRP | 0.146 |
| RRIRSRPPRLPRPRPRPMDTPRP | 0.0136 |
| RRIRPRPPRLPRPRPRPIVRPRP | 0.029 |
| RRIRLRPPRLPRPRPRPCMPPRP | -0.579 |
| RRIRCRPPRLPRPRPRPYCIPRP | -0.565 |
| RRIRSRPPRLPRPRPRPHHRPRP | -0.43 |
| RRIRLRPPRLPRPRPRPFFKPRP | -0.169 |
| RRIRTRPPRLPRPRPRPQHQPRP | -0.132 |
| RRIRWRPPRLPRPRPRPEFPPRP | 0.0195 |
| RRIRERPPRLPRPRPRPVDEPRP | -0.56 |
| RRIRERPPRLPRPRPRPSLPPRP | -0.19 |
| RRIRQRPPRLPRPRPRPGPHPRP | 0.0856 |
| RRIRRRPPRLPRPRPRPCYSPRP | -0.00167 |
| RRIRHRPPRLPRPRPRPIYVPRP | -0.0627 |

| Sequence | shrunken log2 fold change |
| --- | --- |
| RRIRMRPPRLPRPRPRPDVCPRP | 0.0762 |
| RRIRTRPPRLPRPRPRPTSPPRP | 0.119 |
| RRIRGRPPRLPRPRPRPQRYPRP | -0.00818 |
| RRIRARPPRLPRPRPRPDQSPRP | 0.113 |
| RRIRMRPPRLPRPRPRPMCGPRP | 0.00224 |
| RRIRLRPPRLPRPRPRPRASPRP | 0.516 |
| RRIRRRPPRLPRPRPRPLHCPRP | 0.0886 |
| RRIRKRPPRLPRPRPRPMPVPRP | -0.00341 |
| RRIRHRPPRLPRPRPRPHVCPRP | 0.00854 |
| RRIRSRPPRLPRPRPRPFGKPRP | -0.0207 |
| RRIRVRPPRLPRPRPRPKSNPRP | -0.206 |
| RRIRSRPPRLPRPRPRPYGGPRP | -0.608 |
| RRIRQRPPRLPRPRPRPVFCPRP | 0.0139 |
| RRIRRRPPRLPRPRPRPHKVPRP | 0.0772 |
| RRIRFRPPRLPRPRPRPVGWPRP | 0.62 |
| RRIRGRPPRLPRPRPRPWNTPRP | 0.111 |
| RRIRDRPPRLPRPRPRPMAMPRP | 0.25 |
| RRIRPRPPRLPRPRPRPCREPRP | -0.075 |
| RRIRRRPPRLPRPRPRPHLAPRP | -0.0318 |
| RRIRFRPPRLPRPRPRPYVGPRP | -0.108 |
| RRIRLRPPRLPRPRPRPFAMPRP | -0.407 |
| RRIRHRPPRLPRPRPRPFIAPRP | -0.272 |
| RRIRWRPPRLPRPRPRPLIHPRP | -0.0681 |
| RRIRTRPPRLPRPRPRPPQEPRP | 0.0383 |
| RRIRVRPPRLPRPRPRPGASPRP | 0.583 |

| Sequence | shrunken log2 fold change |
| --- | --- |
| RRIRARPPRLPRPRPRPWIWPRP | 0.111 |
| RRIRPRPPRLPRPRPRPSWTPRP | -0.326 |
| RRIRYRPPRLPRPRPRPKPKPRP | 0.394 |
| RRIRARPPRLPRPRPRPTHVPRP | 0.813 |
| RRIRVRPPRLPRPRPRPALMPRP | 0.193 |
| RRIRKRPPRLPRPRPRPEQLPRP | -0.0173 |
| RRIRGRPPRLPRPRPRPNNAPRP | 0.0616 |
| RRIRCRPPRLPRPRPRPLFSPRP | 2.05 |
| RRIRMRPPRLPRPRPRPIKIPRP | -0.0554 |
| RRIRIRPPRLPRPRPRPMTQPRP | 0.0472 |
| RRIRMRPPRLPRPRPRPADWPRP | 0.905 |
| RRIRLRPPRLPRPRPRPHWHPRP | -0.249 |
| RRIRGRPPRLPRPRPRPLVRPRP | 0.577 |
| RRIRDRPPRLPRPRPRPLACPRP | 0.945 |
| RRIRKRPPRLPRPRPRPWPKPRP | 0.274 |
| RRIRRRPPRLPRPRPRPWHHPRP | -0.242 |
| RRIRKRPPRLPRPRPRPDCMPRP | -0.0185 |
| RRIRWRPPRLPRPRPRPQKVPRP | 0.166 |
| RRIRFRPPRLPRPRPRPNRVPRP | -0.0261 |
| RRIRERPPRLPRPRPRPRAPPRP | 0.524 |
| RRIRPRPPRLPRPRPRPPEMPRP | 0.426 |
| RRIRTRPPRLPRPRPRPIPYPRP | -0.0288 |
| RRIRNRPPRLPRPRPRPPHCPRP | 0.0234 |
| RRIRLRPPRLPRPRPRPDQYPRP | -0.014 |
| RRIRIRPPRLPRPRPRPGRCPRP | -0.0543 |

| Sequence | shrunken log2 fold change |
| --- | --- |
| RRIRLRPPRLPRPRPRPRESPRP | 0.787 |
| RRIRGRPPRLPRPRPRPLWQPRP | 0.766 |
| RRIRYRPPRLPRPRPRPIVFPRP | -0.58 |
| RRIRVRPPRLPRPRPRPVMVPRP | -0.166 |
| RRIRERPPRLPRPRPRPIICPRP | -0.0147 |
| RRIRLRPPRLPRPRPRPMEEPRP | 0.156 |
| RRIRDRPPRLPRPRPRPYVAPRP | -0.0638 |
| RRIRTRPPRLPRPRPRPVHSPRP | -0.0193 |
| RRIRVRPPRLPRPRPRPMVDPRP | -0.0954 |
| RRIRGRPPRLPRPRPRPCKIPRP | -0.189 |
| RRIRYRPPRLPRPRPRPWGHPRP | -0.275 |
| RRIRMRPPRLPRPRPRPPAFPRP | 0.82 |
| RRIRDRPPRLPRPRPRPVYTPRP | -0.0405 |
| RRIRPRPPRLPRPRPRPEGEPRP | 0.302 |
| RRIRERPPRLPRPRPRPYVYPRP | -0.296 |
| RRIRSRPPRLPRPRPRPSFVPRP | -0.705 |
| RRIRDRPPRLPRPRPRPSVDPRP | 0.0621 |
| RRIRYRPPRLPRPRPRPYAFPRP | -0.0129 |
| RRIRYRPPRLPRPRPRPGFYPRP | -0.406 |
| RRIRPRPPRLPRPRPRPTVAPRP | 0.277 |
| RRIRDRPPRLPRPRPRPATKPRP | 0.318 |
| RRIRRRPPRLPRPRPRPNINPRP | -0.156 |
| RRIRTRPPRLPRPRPRPDMVPRP | -0.00822 |
| RRIRCRPPRLPRPRPRPGFPPRP | 0.134 |
| RRIRKRPPRLPRPRPRPTNNPRP | -0.2 |
